Measurements taken from the supplement of paper PMC9732359.
± gives the uncertainty stated by the source.

Experiment: protein stability index of a GFP-peptide fusion (yeast GPS) (PSI 1-4); higher = more stable; sorted into four equal gates, so the index is relative within each strain
Outline: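 Tiled 17-residue peptides from yeast proteins were fused downstream of GFP on a plasmid that also expresses Cherry, and the pooled library was carried in yeast. Mid-log cultures grown in leucine-free medium were sorted into four equal gates by GFP/Cherry fluorescence ratio. Plasmids from each gate were PCR-amplified and Illumina-sequenced, and reads were assigned to strains by barcodes. Each peptide's protein stability index is the sum, over gates, of the gate's read frequency multiplied by its gate number.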

Work on SPDKIGTFTADYSKPNL [SSN2] yielded a protein stability index (doa10∆) of 2.81 ± 0.094, a protein stability index (pdr5∆) of 3 ± 0.066 and a protein stability index (san1∆) of 2.65 ± 0.08. For the same sequence, the protein stability index (ubr1∆) was 2.92 ± 0.064.

Work on IGDTIADGPTMREITET [RPO21] yielded a protein stability index (doa10∆) of 3.48 ± 0.11, a protein stability index (pdr5∆) of 3.52 ± 0.092 and a protein stability index (san1∆) of 3.52 ± 0.045. It also gave a protein stability index (ubr1∆) of 3.39 ± 0.059.

With KSLALLGYNFDGSAIED [SNF5] the protein stability index (doa10∆) was 3.01 ± 0.084, the protein stability index (pdr5∆) was 2.99 ± 0.083 and the protein stability index (san1∆) was 2.28 ± 0.072. The protein stability index (ubr1∆) was 2.86 ± 0.07.

In the case of RLNENKKIGCYMFANLE [CSN12], the protein stability index (doa10∆) is reported as 2.76 ± 0.17, the protein stability index (pdr5∆) is reported as 3.14 ± 0.18 and the protein stability index (san1∆) is reported as 3.25 ± 0.084. It also gave a protein stability index (ubr1∆) of 3.27 ± 0.11.

In the case of NQIADLSGKFSTIPTRE [ROX3], the protein stability index (doa10∆) is reported as 2.98 ± 0.091, the protein stability index (pdr5∆) is reported as 2.96 ± 0.093 and the protein stability index (san1∆) is reported as 2.81 ± 0.071. It also gave a protein stability index (ubr1∆) of 3.23 ± 0.07.

INDKRANLMLVMLRLLL [SRB4] showed a protein stability index (doa10∆) of 1.6 ± 0.039, a protein stability index (pdr5∆) of 1.61 ± 0.047 and a protein stability index (san1∆) of 1.97 ± 0.067. It also gave a protein stability index (ubr1∆) of 1.94 ± 0.04.

Work on SFALPFEEDEKNSDVWF [RPN8] yielded a protein stability index (doa10∆) of 3.28 ± 0.08, a protein stability index (pdr5∆) of 3.23 ± 0.072 and a protein stability index (san1∆) of 3.14 ± 0.051. The protein stability index (ubr1∆) was 3.26 ± 0.06.

Work on NTLLVTGPFKVNGVPLR [RPL6B] yielded a protein stability index (doa10∆) of 2.74 ± 0.12, a protein stability index (pdr5∆) of 2.66 ± 0.082 and a protein stability index (san1∆) of 2.63 ± 0.081. For the same sequence, the protein stability index (ubr1∆) was 2.74 ± 0.045.

In the case of YIEASGREGIWSKTIKA [RPC34], the protein stability index (doa10∆) is reported as 1.78 ± 0.1, the protein stability index (pdr5∆) is reported as 2.07 ± 0.16 and the protein stability index (san1∆) is reported as 2.3 ± 0.17. The protein stability index (ubr1∆) was 2.42 ± 0.1.

With PSRTRETATSERNASEV [GRR1] the protein stability index (doa10∆) was 3.32 ± 0.15, the protein stability index (pdr5∆) was 3 ± 0.12 and the protein stability index (san1∆) was 2.86 ± 0.091. It also gave a protein stability index (ubr1∆) of 2.84 ± 0.14.

LVVLTDVVERLHKNFES [RGR1] showed a protein stability index (doa10∆) of 2.49 ± 0.093, a protein stability index (pdr5∆) of 2.74 ± 0.073 and a protein stability index (san1∆) of 2.61 ± 0.12. It also gave a protein stability index (ubr1∆) of 2.96 ± 0.053.

ESTAGSASTSATGISGS [ECM29] gave a protein stability index (doa10∆) of 3.31 ± 0.046, a protein stability index (pdr5∆) of 3.35 ± 0.053 and a protein stability index (san1∆) of 3.12 ± 0.035. The protein stability index (ubr1∆) was 3.277 ± 0.032.

Work on LNTLFNPVTLNEDSKAF [NUT1] yielded a protein stability index (doa10∆) of 2.57 ± 0.062, a protein stability index (pdr5∆) of 1.84 ± 0.057 and a protein stability index (san1∆) of 1.65 ± 0.091. The protein stability index (ubr1∆) was 1.92 ± 0.043.

In the case of LVQLPKSAMDTFKSVSK [POP3], the protein stability index (doa10∆) is reported as 2.65 ± 0.052, the protein stability index (pdr5∆) is reported as 2.85 ± 0.044 and the protein stability index (san1∆) is reported as 2.75 ± 0.047. For the same sequence, the protein stability index (ubr1∆) was 2.54 ± 0.036.

Work on LGSGSNVDVCVMEIGKD [PUP1] yielded a protein stability index (doa10∆) of 3.59 ± 0.089, a protein stability index (pdr5∆) of 3.53 ± 0.087 and a protein stability index (san1∆) of 3.4 ± 0.06. The protein stability index (ubr1∆) was 3.51 ± 0.091.

Sequence KESAVISKQKSKLDYIF [SMC1] has a protein stability index (doa10∆) of 3.04 ± 0.18, a protein stability index (pdr5∆) of 2.81 ± 0.11 and a protein stability index (san1∆) of 3.05 ± 0.11. For the same sequence, the protein stability index (ubr1∆) was 2.98 ± 0.12.

Work on SNGVLNVDNQTSDLVKS [RPS17A] yielded a protein stability index (doa10∆) of 2.83 ± 0.12, a protein stability index (pdr5∆) of 2.88 ± 0.12 and a protein stability index (san1∆) of 3.06 ± 0.18. It also gave a protein stability index (ubr1∆) of 2.86 ± 0.075.

LVALSNEPAARLGSEAD [FAS2] gave a protein stability index (doa10∆) of 3.44 ± 0.082, a protein stability index (pdr5∆) of 3.37 ± 0.073 and a protein stability index (san1∆) of 3.45 ± 0.054. The protein stability index (ubr1∆) was 3.32 ± 0.092.

KLRGDLREAPADYWTHA [SNF6] gave a protein stability index (pdr5∆) of 3 ± 0.27 and a protein stability index (ubr1∆) of 2.99 ± 0.12.

For IFKIVQSRLMSTSYHLN [MED6], the protein stability index (doa10∆) was 2.25 ± 0.18, the protein stability index (pdr5∆) was 2.23 ± 0.13 and the protein stability index (san1∆) was 1.31 ± 0.096. The protein stability index (ubr1∆) was 2.31 ± 0.094.

TRINGLNSNNSIIGNKN [REC8] gave a protein stability index (doa10∆) of 3.2 ± 0.089, a protein stability index (pdr5∆) of 3.04 ± 0.072 and a protein stability index (san1∆) of 3.21 ± 0.048. It also gave a protein stability index (ubr1∆) of 2.98 ± 0.051.

In the case of VAHSSRLANLIDYKLRV [SMB1], the protein stability index (doa10∆) is reported as 3.58 ± 0.15, the protein stability index (pdr5∆) is reported as 3.26 ± 0.15 and the protein stability index (san1∆) is reported as 2.5 ± 0.2. The protein stability index (ubr1∆) was 3.17 ± 0.066.

In the case of RYFWLDHNGVPFPQYPA [ITC1], the protein stability index (doa10∆) is reported as 2.22 ± 0.096, the protein stability index (pdr5∆) is reported as 2.81 ± 0.086 and the protein stability index (san1∆) is reported as 3.08 ± 0.1. It also gave a protein stability index (ubr1∆) of 2.47 ± 0.06.

Work on TSSKSSSLSAIIVFGYP [YDL088C/ASM4] yielded a protein stability index (doa10∆) of 2.31 ± 0.055, a protein stability index (pdr5∆) of 2.06 ± 0.048 and a protein stability index (san1∆) of 2.71 ± 0.072. For the same sequence, the protein stability index (ubr1∆) was 2.58 ± 0.05.

With ELSIRFPQYKLTTFANQ [ARP7] the protein stability index (doa10∆) was 1.69 ± 0.062, the protein stability index (pdr5∆) was 1.51 ± 0.085 and the protein stability index (san1∆) was 1.65 ± 0.12. It also gave a protein stability index (ubr1∆) of 1.59 ± 0.051.

In the case of DSLKLNSKPVELKPVSL [YJL041W/NSP1], the protein stability index (doa10∆) is reported as 2.9 ± 0.082, the protein stability index (pdr5∆) is reported as 2.79 ± 0.07 and the protein stability index (san1∆) is reported as 2.49 ± 0.097. For the same sequence, the protein stability index (ubr1∆) was 2.63 ± 0.1.
